# Data: the DeepSol protein solubility set
# Test: soluble on expression in E. coli; label from the status in PepcDB or PDB records
row,Sequence,soluble on expression in E. coli
1,MLILSTEKEPNFEYEEITRSFLSNMLAFTRGHFTGDISHFSPIVLAEMEKDPNWLEEAAGGMQGVIVQSLLEDENFSSVEQLKGELARLIRLYFALAKDNLTENQESLYVDLFDKFTFLLLCSDEFIMYLDSQPKF,soluble
2,MRGSHHHHHHGMASMVNTKPEKTEEDSEEVREQKHKTFVEKYEKQIKHFGMLRRWDDSQKYLSDNVHLVCEETANYLVIWCIDLEVEEKCALMEQVAHQTIVMQFILELAKSLKVDPRACFRQFFTKIKTADRQYMEGFNDELEAFKERVRGRAKLRIEKAMKEYEEEERKKRLGPGGLDPVEVYESLPEELQKCFDVKDVQMLQDAISKMDPTDAKYHMQRCIDSGLWVPNSKASEAKEGEEAGPGDPLLEAVPKTGDEKDVSV,soluble
3,MGSDKIHHHHHHMNWGKYATYSEDFFEKLTSESNQLDLYIFVQYLLHYQLSEAVDYCHQLGIALKGDIAIGIAHDSVDAWTHPELFHLDKQAGAPPDIFAVNGQNWGFPTYNWKKMAEDGYAWWKKRLTAMSNYFDAYRLDHILGFFRIWQMPEDSVRGLLGQFSPAIALSAEEIENSYGIPLRQWGLERFINPFIKDWVIDEIFGRDNRDWIIQTFLDYIGNGNYTFQNEYNNQKKVEKAQLEDWVREGLYKLHENIILLKDDENPEKYHPRISLIQTISFREFGDDYKGRLEKLYNDYFYGRNYEFWKEKAYEKLPVLKDATNMLACGEDLGMVPANVPDVMNHLNILRLIIERMPSDNRFVSPLNEVPYLSVLTTSSHDTSPLRAWWEENHEEIQRYYNEVMGWYGEAPYYASAEIIQEIVKRHLNSNAMMVILPIQDWLAMSEQLRKEDAKSEQINIPANPYHYWNYRLHCQLETLIDNQDWTEFLKKFIKESKRAY,not soluble
4,VDYKEWYDLRIEALQMQAQMHRSPLRGLIGARVGLIPHQLYIAHEVGQRFAPRVLLADEVGLGKTIEAGLIIHQQLKTGRAERILILVPDSLQYQWMIEMRRRFNLQFSLFDLTRTASIKEHDPDLNPFLTEQCIIASVDLMVDHDDLREQALEAGFDLLVVDEAHHLMWNEEEGGNDRYDLVEELAQQTPGVLLLTATPE,not soluble
5,MGSDKIHHHHHHMGLEDLYLSWPKWFSEALARYSSLEGALEGVEEIYYCGMGGSGAAGDYIEALLSIYAPQGPEFRVVKDFRPPRPPRHRGYGLVLASYSGNTLETVECGSLLSPAAGRVVAVTSGGRLLEMAKERGWLVARLPGGILPRVSFPWMLAASTAMLSGALGVDLEALKRLAGGLDTQGLKGEAERLAGFISRYRIASLVTCGPGIPLAVRLKNELAENAKMPSRLEIYPESSHNDIVALEAAEGLYGAVFIWIEHEGSLCPAVLDVVEGIYREYGVDTISIESSARGGPNATVAEYLSRTLVFGLASVRLALMRGFNPEETPPIDKYKRRLGEALRSQA,not soluble
6,MAHHHHHHMGRLEIRVCGARNVANVQRVGKPDPYVKVKLGNSKKSQIKYKTHVAENCLNPVWNELFKFQVADYDSMQVVFELWNDNVIVDDLLGSYSLSLNGLTRGVVIDTWVLLEGTKGSSSELHLRVLAVDFGRDPGPGDRLTLSLEGDTMMPSTGQTYRPPKNYVPPTQGIVLQSYPPAPLGPPPPVVYSPSAAPRPQVQYGYVTPPQPQRYACGAPPPPPQQPPSQGYGYGAVQAPQNYSYGAPPPPQPMYGAPQLPQCLPYAAGPPPPQMYGPPPPQRRPVQMAYGIPPDM,not soluble
7,MGSDKIHHHHHHLAKRKNHAQAIETTGANLGFEPQLWQTANALRGSMDAAEYKHVVLGLIFLKYISDAFEEHRERLQNIPNADPEDPDEYRADNVFWVPPDARWVELRNNARQPNIGELIDQAMIAVERDNPSLKGVLPKDYARPALDQQRLGQLIDLVSNIPVGTASARSKDVLGRVYEYFLSQFASAEGKKGGEFYTPRCVVRLLVEMLEPYQGRVYDPCCGSAGMFIQSVEFIEAHATGNGNGSRARARISIYGQELNYTTWRLAKMNLAIRGIDGRIEQGDTFRNDRFPDLKADYILANPPFNMKEWGGEQLRNDKRWQYGIPPVGNANFAWVQHIVHHLAPAGVAGFVLANGSMSSNQSGEGEIRRKLIEADLVDCMVALPGQLFYSTQIPACLWFLARNRNNGKFRDRRKQILFIDARRLGRMVDRIHRELTDEEIERIACTYHAWRGESDAGEYRDIPGFCKSASLEDVRKHGYVLTPGRYVGSEVREDDDEPFAEKMQWLVAQLREQQAEAAKLDEAIVANLQELGFWEQKR,not soluble
8,MAATCSWKTCEETEQNTFIVKFSNGNVKNAEELDFTVFKHSNASNPRKKNRRIVVADSDRLPYVGSNFGSGSLQSNNMCKYFVGVLDKQTMQMKVHSAQLFNMLPVIPGEATEAESENQPSTFRDKVDALIEAFGTNKQKRALSSRRLNAVGNETLHQAVAQAASNIIDQKGVEALRNEVIETEAQSDAALFLPPCNANADKLEDVYPFDQLLTPNEFESLKEVGAKYATLSSEDLQKMRDNHCPQTVLKHLETLSKDEADRDRQCRCAWYLSFVIRASLQKRISFKFGSDDGCPRIIINKVLKNFTVESFHNGSLRNTVSMSMRMKMASYCLALLLHMGGQTANLTLLHRDMSISENKMLEVAKAMGLTLSRQNALGKEGGLIEDEHRMVSLVLPLVHYDRRTERKKRKRMN,soluble
9,MGSDKIHHHHHHMLYRQKVLLALIDVFGGTIDRLYLQKMLFLLSQRQEKPIYEFVPYYYGGFSFTAQWDINALFRKGFLAVDKHTVTLVQKHPQLFDSVTERDMHFLHELCQQYRYKARNDLLRELYEQYPYYAQQSKILDEILDDEAKRRIKQCQDEESRIVLFTIGYEGRSLENYLNTLIRNGIKILVDVRNNPVSMKPGFSKSQLRTYCENLGIGYIHIPEVGIVSELRKNLKSQEDYEELFAAYRREILPTTVSFQQRILNILLCYHRIALTCFEAESQRCHRSHLADAISKLPEFSYEVVHL,not soluble
10,MTLSILVAHDLQRVIGFENQLPWHLPNDLKHVKKLSTGHTLVMGRKTFESIGKPLPNRRNVVLTSDTSFNVEGVDVIHSIEDIYQLPGHVFIFGGQTLFEEMIDKVDDMYITVIEGKFRGDTFFPPYTFEDWEVASSVEGKLDEKNTIPHTFLHLIRKK,soluble
11,MEHWYCTNMVGVPVGLIGSTAFNRCLRRITIHGTRETHPGLFRLLAACEYPATASEVFEHYMELEFGLAPGAHEPTQARYPTSYLDLLRGWGVESDCPKAAVLKGWVESRFGLVPTFHKQRLGLFPSSAWATYLQEKTDVRFHNNCIFQQFDLLYEYCQWSIRRFKTPGPRFVRLWRGTNDVEQQLVEGDARQRLCTVRLNNLVSFSDSKERAEEFGDWVLETEVPTVKLLFFPGLLQRQVLGYEGEFLVIGGNYKVRAYHGWFLEHHHHHH,soluble
12,MGSDKIHHHHHHMNAVQVLNFQQNSVRTVADNKGELWFLANDVCEILGYTNPRRTVDLHCKSRGVTKRYTPTTSGEQEMTYINEPNLYRLIIKSRKPAAEAFEEWVMETVLPAIRKTGGCQVGPKTTADDRTGLRQAVAALVGRKGIDYSSAYSMIHQRFNVESIEDLPAGKLPEAVAYVHALTLHTGLTGEVLDAPPKAEPKLPIDGNSLADIAAMVYYGTWMIESGKDISAPLKQLGCRQAVTMWTVWHETRPILKRSAAALEVLRGYADKDASDRIAACLEGIYGKATVR,not soluble
13,TAQFSWDTQLNFSQNKSKIIELLPGKPGMQYALGGSDALQVYAVAGGAYGEIWGTKYQRVEEGEFKGQLLLNESGLPQATSDKHKIGEQQPDFLLGWTNTFNYKNFTLSFLIDGRFGGDIFSFTNMNLQRSGIAECTAPGGKREDIVVAGVIKDGNGYKVNDQSVSLERYYKALATGRAGISEAYIYDATNIRLRNIALSYRFPSSMLKKTPFQQVKLGFTVNNVWMISSHLDGIDPESVYATSTNATGLENSSAPTSRSYLFNVTLGF,not soluble
14,MTLTVAAPCVQTVTEPSKMEMQAESTSHITIRFTEMVGDAQKPTYGSISSAGADLYSAEDVVVPANGKLCVSTGLQIELPIGYYGRVAPRSGLAAKHFIDVGAGVIDSDYRGEVKVLLFNFNTTAFEVKTGDRIAKLICEQIGNGTYEEVKSLPSTNRGAGGFGSTGESTMNSETANPATNLERITVRFTQLNENAQTPTYGSEEAAGADLYSAEDITVPAHGKCCVSTGIQMELPFGYYGRVAPRSGLAAKHFIDVGAGVIDSDYRGEVKVLLFNFTDNAFEVKKGDRIAQLICEKIGHCVYEAASELENTDRGAGGFGSTGQNTMEAEPALKKSKTEQIKTSATSVTIQITKSNDNAQMPTYGSAEAAGADLYSAEDVTVPARGKLCVSTGIQMALPIGYYGRVAPRSGLAAKHFIDVGAGVIDSDYRGEVKVLLFNFGENDFEVKKGDRIAQLVCEQIALCTYSKVESLEVTERGAGGFGSTGQYITL,not soluble
15,MGSDKIHHHHHHMHILIYSYNYHPEPIGIAPLMTELAEGLVNRGHEVRVITGMPNYPEREIYDGYRGQWYVTEQKNGVTIQRSYIRIKSKPNLLDRLLLELSFIFTSLPQAFRGERPDVMILTVPPLLGILPATIFGWLYNCPIVLNVQDILPEAAVRIGLLKNKWMIRTLAALEKFAYRTAHTISVIADGFRENLVNKGVPVNKIVCIPNWVNVNFIHPLPKQNNSWISSHQLDGKFIVLYSGNIALTQGLETVIEAAVCLRHIKEIVFVIVGESRALQRLQEYCLLHGADNVLLLPLQPREKLPEMLAAADVGLIVQKRNIISFNMPSKIPLLLASGRPIVGSVPATGTAARAIKLSGGGIIVEPESPDAMAAAVHDLYANPTFCTRLGNAGRQFAEENYSLEQALDRYEWLFYHILANRKSNVGILPKLDSKESVVDA,not soluble
16,MNHRDKQIDSGSGSGENRRTYDCDICKRGFTNPQALGGHNNIHRRERERYPSSSSSSHSFPFSLPLPSQSPSSSTNFTNPPPYFPTIESYLHQGSQPPINPSHNTQYFGSSSSSRGGGRFAQGASHDLNLSLGLGSMNEDDDTHRSPPETGGSQPQDGDLDLDLRLGGHRHH,soluble
17,MDVLPGRPRARRRRRRRQSRANILAIGVHLPRLRLSRGAMANALGWLSGGAGAGKGSRTLAYWDEDSVTMAVAAARHALARQAAPAIDALQFASTTPPFAEPQNAAFVRAALRLPATTLTQDVHGTPRAGLLALHMALESGTRTLVAAADLPTALPGSTAEARAGDGGAAVLTGDEPGLLRYLGGASLSAPFTDRYRAAGHDYPQEWEERWLREAGYLELVHDAIGRALQAASLRPEQVDHFVLPCPVPGVAAAVAAKAGLGQARLASALAENCGDTGAAHAFVMLGRALEDAAPGQKVLVAQFGQGATALLFEADEAVAGLAAPVSPALRDGLAEDNYMKLLAFRGRIAWDRGLRGRFLVNEALSTAWRNADALLDFVGGRCRETGQVQFPPTRLAATGGFHLDTQEPWPLADRGGRIATFTADLLAFSPCPPNCYGLVDIDGGGRVLMEFTDPQASQLEAGAAVAFALRIKDLDPQTGYRRYFWKALAAPTAD,not soluble
18,MGSDKIHHHHHHMEIKKGTWIIKKGFAEMFKGGVIMDVTSAEQAKIAEEAGAVAVMALERVPADIRKEGGVARMASIAKIREIMEAVSIPVMAKVRIGHIAEAKILEELGVDFIDESEVLTPADDRFHINKHEFKVPFVCGARDLGEALRRIAEGAAMIRTKGEAGTGNVVEAVKHMRRVMEQIKQVTKMEDEELVAYGKEIGAPVELLREVKRLGRLPVVNFAAGGVATPADAALMMMLGADGVFVGSGIFKSKDPRKMAKAMVLAVTYWDNPRILLKISEDIGEPMRGLDVEELEVRMQERGW,not soluble
